From US20190330346A1 (REMD BIOTHERAPEUTICS, published 2019)
Changes are numbered by the printed parent chain. In names and notes the source's numbering stands. Values belong to the binder of their own block, whether it stands above or below them.

Experiments:
[1] = target: T1, human PD-1 (human, UniProt Q15116 25-167); assay: SPR, multiple-cycle, crude Fab from E. coli; antigen form not stated
T1 construct: The immunogen was PD1/Fc (Leu25-Gln167 fused to human IgG1 Pro100-Lys330); also called huPD-1; hPD-1
From the text: (§1) A homology model of mouse anti-PD1 Fv was built wherein putative back mutation sites (i.e., buried residues of the frameworks that are different in the mouse and human acceptor sequences) were identified. There were a total of 14 putative back mutation sites. A variant humanized Fab comprising all 14 of the putative back mutation sites of PD1-grafted Ab mutated back to their mouse counterparts (hereinafter identified as “PD1-BM Ab”) comprising the heavy chain variable region sequence set forth in SEQ ID NO: 38 and the light chain variable region sequence set forth in SEQ ID NO: 39, was synthesized. In addition, 14 variants of PD1-BM Ab (hereinafter identified as Fabs 1-14), each having at least one of the putative 14 back mutation sites in PD1-BM Ab mutated back to the human counterpart, were synthesized. These constructs were used to transform E. coli TG1 strain. Single colonies were pick for each individual construct and grown in E. coli medium. Crude chimeric and humanized Fabs were collected and subjected to multiple-cycle affinity estimation by Surface Plasmon Resonance (SPR).

[2] = target: T2, His-tagged human PD-1 protein (human, UniProt Q15116 25-170, limits assumed); assay: SPR; Fab-SASA captured on immobilised BSA, his-tagged PD-1 as analyte
T2 construct: SPR analyte; also called his-tagged antigen PD-1; not shown: His tag
Experimental: For affinity ranking, BSA was immobilized onto the sensor chip using amine coupling method. The selected Fab-SASA secreted to the culture medium was injected and captured by BSA through the tight binding between BSA and SASA (capture phase). After equilibration, his-tagged antigen PD-1 was injected for 300 seconds (association phase) followed by the injection of running buffer for 900 seconds (dissociation phase). The surface was regenerated before the injection of another three Fab-SASA clones. The process was repeated until all selected Fab-SASA proteins were analyzed. Responses of reference flow cell were subtracted from those of Fab-SASA flow cells during each cycle. The antibodies were ranked by their dissociation rate constants (off-rates, […]). […]

[3] = target: T3, murine PD-1 (murine, UniProt Q02242 25-167, limits assumed); assay: murine PD-1 binding ELISA
T3 construct: also called mouse PD-1
T3 sequence (looked up): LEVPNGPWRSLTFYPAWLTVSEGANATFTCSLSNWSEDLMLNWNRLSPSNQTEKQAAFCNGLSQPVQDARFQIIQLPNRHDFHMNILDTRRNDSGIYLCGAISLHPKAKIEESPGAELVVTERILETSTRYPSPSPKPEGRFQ

[4] = target: T2, His-tagged human PD-1 protein; assay: SPR (Biacore T200); IgG captured by anti-human Fc gamma, His-tagged human PD-1 as analyte, 1:1 model
Experimental: The binding affinity of the purified IgGs to human PD-1 protein were determined using a Surface Plasmon Resonance (SPR) biosensor, Biacore T200 (GE Healthcare). Antibodies were captured on the sensor chip pre-coated with anti-human Fc gamma. His-tagged human PD-1 protein was used as analyte. The data of dissociation (kd) and association (kₐ) rate constants were obtained using Biacore T200 evaluation software. The equilibrium dissociation constants (KD) were calculated from the ratio of kd over kₐ. Binding data for each antibody was processed and fitted to 1:1 interaction model using Biacore T200 evaluation software. All experimental data could be well fitted to the model.

[5] = target: T2, His-tagged human PD-1 protein; assay: SPR (Biacore T200); antibody captured by anti-human Fc gamma, His-tagged human PD-1 as analyte
Experimental: Using the HCVR sequence and LCVR sequence of mAb PD1#3, a murine-human chimeric Fab (hereinafter “chimeric IgG”) was prepared which comprised the heavy chain sequence set forth in SEQ ID NO: 32 and the light chain sequence set forth in SEQ ID NO: 34. The heavy chain and light chain of the chimeric IgG are encoded by the nucleic acids set forth in SEQ ID NOs: 33 and 35, respectively. Nucleic acids encded by SEQ ID NO: 33 and SEQ ID NO: 35 which include a leader sequence were amplified and inserted into pTT5 to make an expression plasmid of the full-length IgG. The heavy chain and light chain expression plasmids were used to co-transfect 100 mL HEK293-6E cells. The recombinant IgG secreted into to media was purified using protein A affinity. The purified IgG migrated as ˜170 kDa band in SDS-PAGE under non-reducing conditions, ˜55 kDa and ˜30 kDA bands under reducing condition. The purity of the chimeric IgG is >90%, and the yield form the 100 mL culture was 0.46 mg. The binding affinity between the chimeric IgG and PD1/Fc fusion protein was determined using a Surface Plasmon Resonance (SPR) biosensor, Biacore T200 (GE Healthcare). PD1#3 was immobilized on the sensor chip pre-coated with anti-human Fc gamma. His-tagged human PD-1 protein was used as analyte.

[6] = target: T1, human PD-1; assay: SPR, multiple-cycle, crude Fab from E. coli; antigen form not stated; footnote: *out of the detection limit
From the text: as §1

[7] = target: T1, human PD-1; assay: SPR; antigen form not stated
[8] = target: T1, human PD-1; assay: SPR, multiple-cycle, crude Fab from E. coli
From the text: as §1

T2 sequence (Q15116 25-170 limits assumed): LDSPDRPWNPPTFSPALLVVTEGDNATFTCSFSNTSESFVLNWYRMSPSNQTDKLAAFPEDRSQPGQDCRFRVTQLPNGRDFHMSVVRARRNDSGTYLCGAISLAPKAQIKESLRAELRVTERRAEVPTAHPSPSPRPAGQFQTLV
T1 sequence (Q15116 25-167 limits assumed): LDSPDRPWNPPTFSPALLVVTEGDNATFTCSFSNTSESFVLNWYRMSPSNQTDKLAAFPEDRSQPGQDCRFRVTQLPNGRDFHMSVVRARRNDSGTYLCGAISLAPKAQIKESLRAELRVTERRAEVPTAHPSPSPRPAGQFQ

- Kd [1]: 0.15 nM
- koff [1]: 5.5e-05 s⁻¹
- kon [1]: 360000 M⁻¹ s⁻¹
- Kd [2]: 0.0564 nM
- koff [2]: 1.78e-05 s⁻¹
- kon [2]: 315000 M⁻¹ s⁻¹
B1: PD1-BM Ab (Fab) (Fab, V domains shown)
VH: EVQLVESGGGLVQPGGSLRLSCAASGFVFSRYDMAWVRQTPGKGLEWVAFISGGGSNTYYPDTVKGRFTISRDNSKNTLYLQMNSLRAEDTAVYYCISPYYYAMEYWGQGTTVTVSS
VL: DIQMTQSPSSISTSVGDRVTITCKASQDVDTAVAWYQQKPGKSPKLLIHWASTRHTGVPSRFSGSGSGTDFTLTLSSVQPEDLADYFCQQYSTFPWTFGGGTKLEIK
notes: Humanized Fab with all 14 back mutations; also called PD1-BM Fab

- binding result [3]: no binding
B2: PD1#3 (antibody, V domains shown)
VH: B1 VH with G10D, Q13K, R19K, G42E, G44R, S75A, N84T, R87K, A88S, T112S
VL: DIVMTQSHKFISTSVGDRVSITCKASQDVDTAVAWYQQKPGQSPKLLIHWASTRHTGVPDRFTGGGSGTDFTLTLSNVQSEDLADYFCQQYSTFPWTFGGGTRLEIK
notes: Murine hybridoma mAb purified on Protein A; also called mAb PD1#3

- Kd [4]: 0.487 nM
- koff [4]: 0.000129 s⁻¹
- kon [4]: 265000 M⁻¹ s⁻¹
- Kd [5]: 0.48 nM
B3: chimeric IgG (antibody, V domains shown)
VH: B1 VH with G10D, Q13K, R19K, G42E, G44R, S75A, N84T, R87K, A88S, T112S
VL: DIVMTQSHKFISTSVGDRVSITCKASQDVDTAVAWYQQKPGQSPKLLIHWASTRHTGVPDRFTGGGSGTDFTLTLSNVQSEDLADYFCQQYSTFPWTFGGGTRLEIKR
notes: Full-length IgG from HEK293-6E cells; also called murine-human chimeric antibody derived from PD1#3

- Kd [4]: 1 nM
- koff [4]: 0.000183 s⁻¹
- kon [4]: 183000 M⁻¹ s⁻¹
B4: AS05617 (IgG) (antibody, V domains shown)
VH: B1 VH with A49S
VL: DIQMTQSPSSISTSVGDRVTITCKASQDVDTAVAWYQQKPGKSPKLLIYWASTRHTGVPSRFSGSGSGTDFTLTISSLQPEDFADYFCQQYSTFPWTFGGGTKVEIKR
notes: Full-length humanized IgG from HEK293 cells

- Kd [4]: 0.943 nM
- koff [4]: 0.000263 s⁻¹
- kon [4]: 279000 M⁻¹ s⁻¹
B5: PD1-BM-min (IgG) (antibody, V domains shown)
VH: B1 VH with T40A, A49S
VL: B4 VL with I11V, T13A, S43A, D85T, F87Y
notes: as for B4

- kon [1]: 320000 M⁻¹ s⁻¹
- Kd [6]: ≤ 0.025 nM
- koff [6]: < 8.1e-06 s⁻¹
B6: Fab 2 (Fab, V domains shown)
VH: B1 VH with A49S
VL: B1 VL
notes: Crude Fab from E. coli; also called PD1-BM VH-A49S

- Kd [7]: 0.253 nM
- koff [7]: 8.4e-05 s⁻¹
- kon [7]: 332000 M⁻¹ s⁻¹
B7: PD1-BM-min Ab (Fab) (Fab, V domains shown)
VH: B1 VH with T40A, A49S
VL: B1 VL with I11V, T13A, S43A, H49Y, L75I, V78L, L83F, D85T, F87Y, L104V
notes: Humanized Fab with only the VH A97I and K98S back mutations; also called PD1-Grafted VH-A97I & K98S

- Kd [4]: 0.579 nM
- koff [4]: 0.000139 s⁻¹
- kon [4]: 241000 M⁻¹ s⁻¹
B8: PD1-BM Ab (IgG) (antibody, V domains shown)
VH: B1 VH
VL: B4 VL with Y49H, I75L, L78V, F83L, V104L
notes: as for B4

- binding result [8]: no binding
B9: Fab 4 (Fab, V domains shown)
VH: B1 VH with S98K
VL: B1 VL
notes: Crude Fab from E. coli; also called PD1-BM VH-S98K

- binding result [3]: no binding
B10: PD1#1 (antibody, V domains shown)
VH: QVQLQQPGAELVMPGASVKMSCKASGYTITDCWMHWVKQRPGQGLEWIGAIDTSNSYTTYNQKFKGKATLTVDESSSTAYMQFNSLTSDDSAVYFCAISLQRPFDYWGQGTTLTVSS
VL: DIQMTQSPASLSASVGENVTITCRASENVYSYLAWYQQKEGKSPQLLVYNAKTLTGGVPSRFSGSGSGTQFSLRISSLQPEDFGSYYCLQHYGYPFTFGSGTKLEKK
notes: Murine hybridoma mAb purified on Protein A; also called mAb PD1#1

- binding result [3]: no binding
B11: PD1#4 (antibody, V domains shown)
VH: EVRLVESGGGLVKPGGSLKVSCVASGFTFSRYGMSWVRQTPEKRLEWVATISGGGRDTYYPDSVKGRFTISRDNAKNNLYLQMSSLRSEDTALYYCVRQEDIVWFAYWGQGTLVTVSA
VL: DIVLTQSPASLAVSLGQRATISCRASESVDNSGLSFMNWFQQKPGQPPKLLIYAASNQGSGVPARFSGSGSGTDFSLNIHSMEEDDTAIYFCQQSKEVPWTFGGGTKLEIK
notes: Murine hybridoma mAb purified on Protein A; also called mAb PD1#4
